# Results reported in the supplement of paper PMC9233669.
# Fewer inactive variants are shown than the library holds.
# Columns and labels:
# biotinyl-Trp-oxazolone = experiment: self-aminoacylation, catalytic enhancement (BWO) (fold over background); higher = more active; k-Seq, kA / k0A0; sequences stand for … in GGGAAUGGAUCCACAUCUACGAAUUC…UUCACUGCAGACUUGACGAAGCUG
# Procedure, shortened: (§1)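 The uncatalyzed rate is the low-activity peak of a bimodal Gaussian fit, and catalytic enhancement is median kA divided by it. The kA values came from pseudo-first-order fits, with 1000 bootstraps, of per-sequence fraction reacted measured by streptavidin capture, triplicate qPCR and Illumina sequencing. Mutagenized RNA pools with a 21-nt variable region (0.43 μM) were reacted with each biotinyl-aminoacyl-oxazolone at 2–1250 μM in 50 μL HEPES/NaCl/KCl/MgCl2/CaCl2 buffer with 5% acetonitrile, pH 6.9–7.0, for 90 minutes at room temperature.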
# biotinyl-Leu-oxazolone = experiment: self-aminoacylation, catalytic enhancement (BLO) (fold over background); higher = more active; k-Seq, kA / k0A0; sequences stand for … in GGGAAUGGAUCCACAUCUACGAAUUC…UUCACUGCAGACUUGACGAAGCUG
# Procedure, shortened: as §1
# biotinyl-Ile-oxazolone = experiment: self-aminoacylation, catalytic enhancement (BIO) (fold over background); higher = more active; k-Seq, kA / k0A0; sequences stand for … in GGGAAUGGAUCCACAUCUACGAAUUC…UUCACUGCAGACUUGACGAAGCUG
# Procedure, shortened: as §1
# biotinyl-Met-oxazolone = experiment: self-aminoacylation, catalytic enhancement (BMO) (fold over background); higher = more active; k-Seq, kA / k0A0; sequences stand for … in GGGAAUGGAUCCACAUCUACGAAUUC…UUCACUGCAGACUUGACGAAGCUG
# Procedure, shortened: as §1
# biotinyl-Val-oxazolone = experiment: self-aminoacylation, catalytic enhancement (BVO) (fold over background); higher = more active; k-Seq, kA / k0A0; sequences stand for … in GGGAAUGGAUCCACAUCUACGAAUUC…UUCACUGCAGACUUGACGAAGCUG
# Procedure, shortened: as §1
# biotinyl-Phe-oxazolone = experiment: self-aminoacylation, catalytic enhancement (BFO) (fold over background); higher = more active; k-Seq, kA / k0A0; sequences stand for … in GGGAAUGGAUCCACAUCUACGAAUUC…UUCACUGCAGACUUGACGAAGCUG
# Procedure, shortened: as §1
Sequence,self-aminoacylation (biotinyl-Trp-oxazolone),self-aminoacylation (biotinyl-Leu-oxazolone),self-aminoacylation (biotinyl-Ile-oxazolone),self-aminoacylation (biotinyl-Met-oxazolone),self-aminoacylation (biotinyl-Val-oxazolone),self-aminoacylation (biotinyl-Phe-oxazolone)
AUUCACCUACGUCACCGGGUG [Fam2.2 aminoacylation ribozyme variant],3.84,5.96,2.72,4.43,2.84,36.4
CUACACUUCAUGCAAUCGGUC [Fam1B.1 aminoacylation ribozyme variant],0.496,0.516,0.707,0.623,0.693,0.689
CCACACUUCCAGAAAUCGGUC [Fam1B.1 aminoacylation ribozyme variant],0.976,1.13,0.933,0.808,1.06,1.69
AGUACCCUGGUCAUCAAGUGA [Fam2.1 aminoacylation ribozyme variant],2.89,2.35,1.61,2.28,1.75,3.2
AUUCACCUAGGUCAUUGGGGG [Fam2.2 aminoacylation ribozyme variant],3.03,2.77,2.45,2.67,2.06,1.27
AGUCCCCUAGGUCAUCGGGUG [Fam2.2 aminoacylation ribozyme variant],11.4,16.9,8.61,12,7.97,93.9
AUUACCCUGCUCAUCGCGUGA [Fam2.1 aminoacylation ribozyme variant],16.9,16.4,7.11,17.1,7.29,152
CUACUGCAAACAAUCGUUCUG [Fam1A.1 aminoacylation ribozyme variant],0.574,0.647,0.702,0.818,0.735,0.732
AUUACCCUGGUAAUCGGGUGA [Fam2.1 aminoacylation ribozyme variant],12.1,13.1,4.26,12.4,4.83,86.9
CCACACUUCAACCAUUCGGUC [Fam1B.1 aminoacylation ribozyme variant],1.98,1.25,1.51,1.52,1.35,6.93
AAUCACCUAGGUCAUCUGGUG [Fam2.2 aminoacylation ribozyme variant],2.52,2.27,1.96,2.08,1.67,11.2
AAGUUUGCAAAAAGUCGCAAG [Fam3.1 aminoacylation ribozyme variant],0.831,0.938,0.902,1.07,0.733,1.72
AUUAGCCUGGUCAUCGAGCGA [Fam2.1 aminoacylation ribozyme variant],4.5,2.59,2.55,2.52,2.53,2.04
AAAACCCUGGUCAUCGAGUGA [Fam2.1 aminoacylation ribozyme variant],73.3,65.1,26.8,66.9,26.3,462
AUUACCCAGGUGAUCGAGUGA [Fam2.1 aminoacylation ribozyme variant],6.02,4.3,2.39,4.68,2.33,29.3
AUUCACCUAUGUCAUCGGGUG [Fam2.2 aminoacylation ribozyme variant],5.45,7.41,3.61,5.41,3.48,36.7
AUUAUCCUAGUCAUCGAGUGA [Fam2.1 aminoacylation ribozyme variant],8.1,6.53,3.35,5.97,3.15,26.4
CGACACUCCAAGCAAUCGGUC [Fam1B.1 aminoacylation ribozyme variant],1.19,0.842,1.11,0.665,1.11,0.914
CUACUUUAAACAGUCGGUCUG [Fam1A.1 aminoacylation ribozyme variant],0.651,0.812,0.837,0.765,0.845,0.582
AUUACCACGGUCAUCGAGUGA [Fam2.1 aminoacylation ribozyme variant],8.11,5.96,3.48,6.51,3.66,38.3
AUGUUUGCUAAUGGUCGCAAG [Fam3.1 aminoacylation ribozyme variant],1.13,1.02,1.16,0.875,0.934,1.63

Sequence,self-aminoacylation (biotinyl-Trp-oxazolone),self-aminoacylation (biotinyl-Leu-oxazolone),self-aminoacylation (biotinyl-Ile-oxazolone),self-aminoacylation (biotinyl-Met-oxazolone),self-aminoacylation (biotinyl-Val-oxazolone),self-aminoacylation (biotinyl-Phe-oxazolone)
AAGUUGACUAAUAGUCGCAAG [Fam3.1 aminoacylation ribozyme variant],1.19,0.935,1.18,0.839,0.949,1.5
AUUCACCUAGGACCUCGGGUG [Fam2.2 aminoacylation ribozyme variant],3.54,3.69,2.77,3.6,2.63,20.7
AAGUUUGCUAAUAGUCGUAAC [Fam3.1 aminoacylation ribozyme variant],0.778,0.68,0.726,0.658,0.822,1.02
CUACUUCUAACAAUCGAUCUG [Fam1A.1 aminoacylation ribozyme variant],0.416,0.509,0.674,0.522,0.67,0.698
AUUCACCUAGGUUAUCGAGUG [Fam2.2 aminoacylation ribozyme variant],1.89,2.35,1.4,1.97,1.42,2.32
AUGACCUUGGUCAUCGAGUGA [Fam2.1 aminoacylation ribozyme variant],6.29,5.27,3.22,5.23,3.1,22.3
CCACACUUCAAGCAAACAGUC [Fam1B.1 aminoacylation ribozyme variant],0.375,0.674,0.816,0.609,0.757,1.09
CUACUGCAAACAAUUGGUCUG [Fam1A.1 aminoacylation ribozyme variant],0.956,0.823,1.19,0.966,1.07,1.18
AUUACCCAGAUCAUCGAGUGA [Fam2.1 aminoacylation ribozyme variant],7.37,5,3.1,5.55,2.99,15.2
CUACUUCAAACAUUCGUUCUG [Fam1A.1 aminoacylation ribozyme variant],0.504,0.659,0.713,0.669,0.706,0.513
AAGUUUGCUAAUUGUGGCAAG [Fam3.1 aminoacylation ribozyme variant],0.773,0.988,0.735,0.688,0.817,0.701
AUUAACCUGGUCAUGGAGUGA [Fam2.1 aminoacylation ribozyme variant],4.5,3.54,2.45,4.08,2.02,9.66
CUGCUUCAAACAAUCUGUCUG [Fam1A.1 aminoacylation ribozyme variant],1.53,0.647,0.604,0.675,0.701,4.03
AAGUUUGCUAAUAGACGCGAG [Fam3.1 aminoacylation ribozyme variant],0.812,0.619,0.793,0.912,0.64,0.443
CCACACAUCAAGGAAUCGGUC [Fam1B.1 aminoacylation ribozyme variant],0.926,1.02,1.04,0.804,0.884,0.77
CUACUUCAAACAAACGGUCUG [Fam1A.1 aminoacylation ribozyme variant],0.615,0.666,0.77,0.664,0.812,0.894
AUUACCAAGGUCAUCGAGUGA [Fam2.1 aminoacylation ribozyme variant],9.76,8.44,3.64,7.64,3.96,43.2
UCACACUUCAAGCAAUCGAUC [Fam1B.1 aminoacylation ribozyme variant],0.732,0.468,0.589,0.501,0.808,1.49
AUUACCCUGGUGAUCGAGUGU [Fam2.1 aminoacylation ribozyme variant],2.96,2.31,1.51,2.12,1.57,5.19
AUUACCCUGGUCACCGAGUGA [Fam2.1 aminoacylation ribozyme variant],9.22,9.26,3.9,8.44,4.25,51.3
GUACUUCAAACAAACGGUCUG [Fam1A.1 aminoacylation ribozyme variant],1.15,1.31,1.43,1.22,1.15,1.72
